From the RNAGym collection of RNA variant scans (doi:10.1021/acssynbio.7b00057)

B1: Pistol ribozyme (parent)
chain: GGGUCGUUGUUCCAUAAUCGCGUGGAUAUGGCACGCAAGUUUCUACCGGGCACCGUAAAUGUCCGACUGGAGCCGUUCGGGCGGCUAUAAACAGACCUCAGGCCCGAAGCGUGGCGGCACCUGCCGCCGGUGGUAAAAAAGAUCGGAAGAGCACACGUCU

Variants of: B1
Assay: aptazyme ON/OFF ratio, guanine; higher = stronger switching; co-transcriptional cleavage with and without guanine

Variant	aptazyme ON/OFF ratio
U8G G9C U10G U11G C12A	1.21
U7C U8C U10C U11A C12A C13U	1.45
U7C U10A C12U C13U	1.35
U7C U10C U11G C12U	1.18
U7A U8A G9U C12A	1.19
U7A U8C G9U U11C C12G C13U	1.18
U8A G9C U10A U11A C12A	1.25
U7C U8C G9A U10G U11C C12U C13G	1.18
U10A U11G C12U C13G	1.24
U8G U10A U11A C12G C13A	1.12
U8G G9U U10A U11A	1.59
U8A U10C U11C C13U	1.02
U7G U8G G9C U10G C13U	1.26
U7C G9C U10G U11G C12A C13U	1.09
U8C G9C U11A C13A	1.04
U7G G9U U10A U11G C12U C13A	1.23
U7A U8A G9C U10C U11C C12U	1.02
U7G U8G G9C U10A U11A C12A C13A	1.05
U7A G9C U10C U11G C12U C13G	1.04
U7G G9C U11A C12U C13U	1.32
U7A U8G U11C	1.32

Variant	aptazyme ON/OFF ratio
U7G U8A G9A U10G U11A C12G C13A	1.04
U7G U8G C13G	1.42
U7C U8C G9U U10C U11G C12U C13A	1.09
U7C U8C G9U U10A U11G C13G	1.11
G9C U10G C12U C13A	1.15
U7A U8C G9C U10C U11C C12U C13A	1.02
U7C U8G G9C U10G U11A C13A	1.3
U7C U8A U10A U11C C13G	1.04
U8G U10A U11A C12U	1.28
U7G G9A U10A U11A C12U C13G	1.19
U7A U8C G9A U10G U11C	1.04
U7A U8A U10G U11A C12A C13G	1.1
U7A U8G G9C U11G C12A C13U	1.28
U7A U8C G9U U11A C12A C13U	1.33
U8G G9C U10C U11C C13G	1.01
U7C U8C G9A U10G U11A C12G C13G	1.2
G9A U10G C13G	1.15
U7G U8G G9C U10C C12U C13A	1.29
U7A U8C G9A U11C C12G C13U	1.16
U8C G9U U10C U11G C12G C13A	1.11
U11G C12U	1.29

Variant	aptazyme ON/OFF ratio
U7C U8C G9U U10G C12A C13U	1.1
U7A U8A G9U U10C U11G C12G C13U	1.12
U8G G9C U10G U11G C13U	1.12
U7G U8A U10G C12U C13A	1.6
U8G G9A U10G U11A C12U	1.35
U7A U8C U10G C12U C13U	1.34
U7C U10G U11G	1.23
U8A G9C U10C C12A C13U	0.995
U7C G9C U10C U11C C12U	1.01
U11A C12G	1.28
G9U U11C C12U	2.4
U7C U8G G9U U10G U11A C12G C13U	1.32
U7G U8G G9A U10G U11G C13A	1.13
U7G U8G G9C C12G C13A	1.28
U7C U8C G9U U10C U11A C13A	1.2
U7G U8C G9A U11G C12A C13G	1.1
U8A G9A U10C U11C	1.04
U7C U8G G9C U10A U11G C12U C13G	1.12
U7A U8A G9C U10C U11G C13G	1.05
U8A U10G U11C C12U C13U	1.2
U7G U8A U10G U11C C12A C13G	1.17

Variant	aptazyme ON/OFF ratio
U7G U8A G9U U11C C12A	1.16
U7G G9U U11A C13U	1.27
U7A U8C G9C U10A C12A C13G	1.08
U7G U8G G9A U10A U11C C12A C13A	1.06
U7G U8A G9C U10G C12U C13U	1.06
U7G U8G U10G C12G C13G	1.32
U7G U8G G9C C12A C13U	1.2
U7G G9U U10G U11C C12G C13U	1.36
U7C U8G G9A U11G C12U	1.26
U7C U8A G9A U10A U11G	1.31
U7C U8G G9C U11C	1.18
U7C U8A G9U U10A U11G C13U	1.17
U8C G9C U10A U11C C12G C13U	1.27
U7C U8G G9C U11C C13G	1.05
U7A U8A G9U U10G U11A C12U C13A	1.14
U7A U8G U11G C12G	1.36
U7G G9C U11G C12U	1.43
U8A U10G U11C C12A	1.49
U7A U8G G9C U10C U11G C12A	1.06
U8A G9U U10C U11C C12G C13A	1.07
U7G U10C U11A C12G C13G	1.11
